Assay results: publication PMC6242908
pKd: −log10 of the molar value.

These sequences were tested against MBP-KRIPP11-His6 (Trypanosoma brucei) (UniProt Q57YK5) (assay: fluorescence anisotropy). Details: DNA; FA: 20 mM Tris-HCl pH 7.5, 150 mM KCl, 5 mM MgCl2, 1 mM DTT, 20 nM RNA/DNA, 25 C; EMSA: same buffer with BSA and RNAsin, 150 nM RNA/DNA, 2% tris-glycine ….

Sequence	pKd
GGGGGGGGGGGG [dG12]	5.73

Same assay, conditions: FA: 20 mM Tris-HCl pH 7.5, 150 mM KCl, 5 mM MgCl2, 1 mM DTT, 20 nM RNA/DNA, 25 C; EMSA: same buffer with BSA and RNAsin, 150 nM RNA/DNA, 2% tris-glycine …

Sequence	pKd
GGGG [G4 RNA]	5.47
GGGGCCUUUAAA [G4C2U3A3]	5.66
GGGGGG [G6 RNA]	5.97
GGGGGGCCUUAA [G6C2U2A2]	6.03
GGGGGGGGG [G9 RNA]	5.73
GGGGGGGGGGGG [G12 RNA (native)]	6.18
GGUGGUGGUGGU [(GGU)4]	5.18
